For one experiment, the target named is GFRα1-RET (Homo sapiens, UniProt P07949). Description: RET phosphorylation assay. Particulars: GDNF 200 ng/ml, 15 min; vehicle 0.66±0.22. Type of experiment: cell-based.
For another experiment, the target named is RET (Homo sapiens, UniProt P07949). Description: RET phosphorylation assay, GFP transfected MG87RET cells. In kind it is cell-based. Conditions: GDNF in the absence of GFRα1.
Experiment [1] relates to AKT. In kind it is cell-based, murine. Particulars: GDNF 200 ng/ml; vehicle 0.91±0.20.
In experiment [2] the test system is ERK. Type of experiment: cell-based, murine. Particulars: GDNF 200 ng/ml; vehicle 0.56±0.13.
Experiment [3] has as its system wild-type midbrain dopamine neurons (TH-ir cells). Description: Survival assay for primary dopamine neurons, wild-type. Conditions: GDNF 10 ng/ml ([…]), 5 days in vitro; vehicle 226.3±6.6. In kind it is cell-based, mouse.
Experiment [4] has as its system RET knockout midbrain dopamine neurons (TH-ir cells). Description: Survival assay for primary dopamine neurons, RET knockout. In kind it is cell-based, mouse. Conditions: GDNF 10 ng/ml (≃[…]), 5th day in vitro.
The test system of experiment [5] is midbrain dopamine neurons exposed to MPP+. In words: Survival of MPP+-challenged dopamine neurons. Type of experiment: cell-based, mouse. Conditions: GDNF 10 ng/ml (≃[…]) with MPP+ 2 μM, 48 hours; vehicle 267.7±20.4.
The subject of experiment [6] is 6-OHDA lesioned rats. In words: Amphetamine-induced rotational assay, unilateral 6-OHDA lesion. Type of experiment: in vivo, rat. Particulars: GDNF 3 μg/24 h intrastriatal 14 days; 12 weeks post lesion.
Experiment [7] relates to 6-OHDA lesioned rats. Description: TH-ir neurite number in the striatum. In kind it is in vivo, rat. Conditions: BT44 0.1 and 0.3 μg/24 h, GDNF 3 μg/24 h; newly developed algorithm.
Experiment [8] concerns 6-OHDA lesioned rats. In words: TH-ir cell bodies in the SNpc, CNN algorithm. Type of experiment: in vivo, rat. Conditions: GDNF 3 μg/24 h.
Experiment [9] concerns 6-OHDA lesioned rats. Description: DAT-ir cell bodies in the SNpc. In kind it is in vivo, rat. Particulars: GDNF 3 μg/24 h.
The test system of a further experiment is dopamine neurons. Conditions: cited from earlier work.
Experiment [10] has as its system 6-OHDA lesioned rats. In words: Optical density of TH-ir fibers in the dorsal striatum. Conditions: GDNF 3 μg/24 h; 12 weeks post lesion.
The subject of experiment [11] is 6-OHDA lesioned rats. Description: Optical density of DAT-ir fibers in the dorsal striatum. Conditions: GDNF 3 μg/24 h.
The next experiment deals with GFRα2-RET (Homo sapiens, UniProt P07949). In words: RET phosphorylation assay, GFRα2 transfected MG87RET cells. Type of experiment: cell-based. Particulars: NRTN 200 ng/ml, 15 min; vehicle 0.86±0.15.
In experiment [12] the test system is AKT. Type of experiment: cell-based, murine. Particulars: NRTN 200 ng/ml; vehicle 0.63±0.02.
The subject of experiment [13] is ERK. Type of experiment: cell-based, murine. Particulars: NRTN 200 ng/ml; vehicle 0.18±0.04.
Another experiment concerns the target TrkB (Homo sapiens, UniProt Q16620). Description: Luciferase reporter assay in MG87 cells expressing TrkB. Type of experiment: cell-based. Conditions: BDNF 100 ng/ml, overnight. (A reporter such as luciferase makes a cellular process visible.)

We go through 3 molecules from article PMC8461720 (Journal of Parkinson's Disease, 2021).

Like-named read-outs stand apart in the source and are kept apart here.

Sequence of RET (P07949 29-1114): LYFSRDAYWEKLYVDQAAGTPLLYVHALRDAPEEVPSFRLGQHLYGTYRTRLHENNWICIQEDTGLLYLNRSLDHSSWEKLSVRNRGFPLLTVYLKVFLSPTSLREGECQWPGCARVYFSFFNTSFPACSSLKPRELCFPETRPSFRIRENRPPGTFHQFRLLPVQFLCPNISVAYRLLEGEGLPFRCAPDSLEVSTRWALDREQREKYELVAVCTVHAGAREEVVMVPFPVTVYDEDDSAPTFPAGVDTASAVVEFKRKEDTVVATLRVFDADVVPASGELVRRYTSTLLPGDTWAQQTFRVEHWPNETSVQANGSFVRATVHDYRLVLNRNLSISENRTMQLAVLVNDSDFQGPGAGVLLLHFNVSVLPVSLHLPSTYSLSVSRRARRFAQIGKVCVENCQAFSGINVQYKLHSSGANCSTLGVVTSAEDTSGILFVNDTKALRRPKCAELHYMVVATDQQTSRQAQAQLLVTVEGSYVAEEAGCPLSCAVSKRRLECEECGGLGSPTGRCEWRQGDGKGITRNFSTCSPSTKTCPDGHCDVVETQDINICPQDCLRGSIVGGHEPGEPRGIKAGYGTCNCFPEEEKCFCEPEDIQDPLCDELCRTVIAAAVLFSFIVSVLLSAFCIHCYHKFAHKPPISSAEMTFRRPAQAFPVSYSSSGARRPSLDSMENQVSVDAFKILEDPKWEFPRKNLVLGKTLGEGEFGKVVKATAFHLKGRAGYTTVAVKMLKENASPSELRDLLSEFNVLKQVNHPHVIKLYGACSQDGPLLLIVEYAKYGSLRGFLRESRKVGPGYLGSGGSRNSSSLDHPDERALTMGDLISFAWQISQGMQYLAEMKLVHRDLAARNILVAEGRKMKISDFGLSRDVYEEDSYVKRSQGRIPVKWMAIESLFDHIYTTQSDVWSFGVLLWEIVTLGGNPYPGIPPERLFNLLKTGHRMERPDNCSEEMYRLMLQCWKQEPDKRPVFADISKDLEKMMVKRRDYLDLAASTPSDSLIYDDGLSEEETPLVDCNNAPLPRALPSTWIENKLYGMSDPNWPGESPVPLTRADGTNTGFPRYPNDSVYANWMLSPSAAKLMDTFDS
Sequence of GFRα2-RET (P07949 29-1114): as above
Sequence of GFRα1-RET (P07949 29-1114): as above
Sequence of GFRα1-RET (P56159 25-429 partner limits assumed): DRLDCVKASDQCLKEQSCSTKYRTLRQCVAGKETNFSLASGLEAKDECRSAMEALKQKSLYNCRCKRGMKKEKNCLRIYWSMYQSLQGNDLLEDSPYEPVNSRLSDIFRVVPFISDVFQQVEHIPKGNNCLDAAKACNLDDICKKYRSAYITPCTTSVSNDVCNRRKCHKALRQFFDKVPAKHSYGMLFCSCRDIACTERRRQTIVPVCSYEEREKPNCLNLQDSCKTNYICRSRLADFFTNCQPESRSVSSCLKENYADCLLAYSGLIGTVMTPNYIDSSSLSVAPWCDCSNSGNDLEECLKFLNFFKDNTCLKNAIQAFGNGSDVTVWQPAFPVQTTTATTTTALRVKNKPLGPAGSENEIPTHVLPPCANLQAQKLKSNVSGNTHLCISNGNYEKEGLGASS
Sequence of TrkB (Q16620 32-822, species assumed): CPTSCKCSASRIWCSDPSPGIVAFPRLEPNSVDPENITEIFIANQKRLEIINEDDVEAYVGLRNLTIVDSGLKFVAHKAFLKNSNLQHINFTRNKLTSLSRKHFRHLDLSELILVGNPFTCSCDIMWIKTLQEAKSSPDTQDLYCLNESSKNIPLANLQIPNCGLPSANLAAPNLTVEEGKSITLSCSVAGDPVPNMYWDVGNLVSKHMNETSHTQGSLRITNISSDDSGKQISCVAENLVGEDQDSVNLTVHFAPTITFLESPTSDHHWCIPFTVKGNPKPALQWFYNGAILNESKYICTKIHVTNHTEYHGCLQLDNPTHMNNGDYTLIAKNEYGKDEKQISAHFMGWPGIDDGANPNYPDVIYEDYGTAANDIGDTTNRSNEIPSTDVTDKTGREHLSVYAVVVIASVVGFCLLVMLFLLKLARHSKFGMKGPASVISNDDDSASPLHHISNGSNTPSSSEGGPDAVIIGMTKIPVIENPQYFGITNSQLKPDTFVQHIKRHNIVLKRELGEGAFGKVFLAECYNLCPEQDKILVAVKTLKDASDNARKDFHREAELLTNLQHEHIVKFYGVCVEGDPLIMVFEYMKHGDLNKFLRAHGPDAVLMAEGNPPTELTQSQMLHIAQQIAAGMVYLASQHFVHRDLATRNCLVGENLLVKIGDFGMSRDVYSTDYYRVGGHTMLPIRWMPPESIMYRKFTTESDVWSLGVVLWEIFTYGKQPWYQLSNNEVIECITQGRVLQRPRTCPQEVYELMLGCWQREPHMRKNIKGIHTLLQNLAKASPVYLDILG

B1: GDNF: Human recombinant glial cell line-derived neurotrophic factor (protein, UniProt P39905 78-211, looked up)
Glial cell line-derived …: SPDKQMAVLPRRERNRQAAAANPENSRGKGRRGQRGKNRGCVLTAIHLNVTDLGLGYETKEELIFRYCSGSCDAAETTYDKILKNLSRNRRLVSDKVGQACCRPIAFDDDLSFLDDNLVYHILRKHSAKRCGCI
For B1, the “level of RET phosphorylation (pRET band normalized to RET)” value in the experiment with GFRα1-RET turned out to be 2.59±0.33. Moreover, the RET activation result in the experiment with RET is “did not activate RET”. Besides, the “level of AKT phosphorylation (pAKT normalized to GAPDH)” value in the experiment with AKT [1] is on record as 4.77±0.43. For the same molecule, in the experiment with ERK [2], the “level of ERK phosphorylation (pERK normalized to GAPDH)” value was 2.76±0.37. Besides, in [3], the “number of TH-ir cells” value worked out at 384.0±35.2. For the same molecule, the survival promoting effect result in [4] is on record as “did not observe survival promoting effect”. The “number of TH-ir neurons” value in [5] is recorded as 333.0±12.6. The “number of net ipsilateral turns (120 min)” value with 6-OHDA lesioned rats [6] is listed as 149.1±47.9. For the same molecule, the “number of TH-ir fibers (neurite number) in the striatum” value with 6-OHDA lesioned rats [7] is “No statistically significant differences”. In addition, in the experiment with 6-OHDA lesioned rats [8], the “number of TH-ir cell bodies relative to PBS” value is reported as 2.5 times and the “number of TH-ir cell bodies relative to PG” value came to 2.3 times. In addition, the “number of TH-ir cell bodies in the SNpc, Lesioned/Intact side (%)” value in the experiment with 6-OHDA lesioned rats [8] (12 weeks post lesion, PBS 11.5±0.9, PG 12.6±0.9) is 29.1±2.8 % of the intact side. In addition, the “number of DAT-ir cell bodies relative to PBS” value in the experiment on 6-OHDA lesioned rats [9] stood at 2.2 times. Further, in the experiment with 6-OHDA lesioned rats [9] (12 weeks post lesion, PBS 9.5±1.4, PG 11.6±1.3), the “number of DAT-ir cell bodies in the SNpc” value was 20.7±2.9 % of the intact side. In addition, in the experiment on dopamine neurons (ref 52), the “GDNF concentration at which effects on neuronal survival are detected” value is 1 ng/mL and the “GDNF concentration at which somewhat increase in survival is already detectable” value was 0.1 ng/mL. In the experiment on dopamine neurons (ref 81), the “GDNF concentration at which effects on neuronal survival are detected” value is 5 ng/mL. In the experiment on 6-OHDA lesioned rats [10], the “TH-ir fiber density relative to PBS treated rats” value was found to be 2.6 times and the “density of TH-ir fibers in the striatum” value was 15.8±1.6 % of the intact side. In the experiment on 6-OHDA lesioned rats [11], the “DAT-ir fiber density relative to PBS” value is 9.9 times. Besides, the “density of DAT-ir fibers in the striatum” value with 6-OHDA lesioned rats [11] (12 weeks post lesion) is reported as 9.9±1.7 % of the intact side.

B2: NRTN: human recombinant neurturin (protein, UniProt Q99748 96-197, looked up)
Neurturin: ARLGARPCGLRELEVRVSELGLGYASDETVLFRYCAGACEAAARVYDLGLRRLRQRRRLRRERVRAQPCCRPTAYEDEVSFLDAHSRYHTVHELSARECACV
Turning to B2, the “level of RET phosphorylation (pRET band normalized to RET)” value with GFRα2-RET amounted to 3.34±0.41. The “level of AKT phosphorylation (pAKT normalized to GAPDH)” value with AKT [12] was 1.72±0.13. Moreover, in the experiment with ERK [13], the “level of ERK phosphorylation (pERK normalized to GAPDH)” value was 1.14±0.15.

B3: BDNF: brain-derived neurotrophic factor (protein, UniProt P23560 19-247, looked up)
Neurotrophic factor BDNF …: APMKEANIRGQGGLAYPGVRTHGTLESVNGPKAGSRGLTSLADTFEHVIEELLDEDQKVRPNEENNKDADLYTSRVMLSSQVPLEPPLLFLLEEYKNYLDAANMSMRVRRHSDPARRGELSVCDSISEWVTAADKKTAVDMSGGTVTVLEKVPVSKGQLKQYFYETKCNPMGYTKEGCRGIDKRHWNSQCRTTQSYVRALTMDSKKRIGWRFIRIDTSCVCTLTIKRGR
Regarding B3, the “luciferase activity in reporter cells expressing TrkB” value in the experiment with TrkB is on record as “increased the luciferase activity”.
